Numbering of substitutions follows the chain as printed. Numbers in names are those of the source.
B1: TAT-GIV-CT-WT: Recombinant cell-permeable fusion of TAT-PTD, His and HA tags, linker and human GIV C-terminus (aa 1660-1870), wild type; SEQ ID NO: 2 (protein)
chain: MRGSHHHHHHGMASMTGGQQMGRDLYDDDDKDRWGSKLGYGRKKRRQRRRGGSTMSGYPYDVPDYAGSMGGSGHSGETLESRHHKIKTGSPGSEVVTLQQFLEESNKLTSVQIKSSSQENLLDEVMKSLSVSSDFLGKDKPVSCGLARSVSGKTPGDFYDRRTTKPEFLRPGPRKTEDTYFISSAGKPTPGTQGKIKLVKESSLSRQSKDSNPYATLPRASSVISTAEGTTRRTSIHDFLTKDSRLPISVDSPPAAADSNTTAASNVDKVQESRNSKSRSREQQSS
B2: TAT-GIV-CT-FA: GEF-deficient F1685A mutant of the TAT-GIV-CT peptide, dominant-negative; SEQ ID NO: 3 (protein)
chain: B1 chain with F101A

What was measured:
[1] = system: GIV, IRS1 and Akt phosphorylation; test: Metabolic insulin signaling in L6 cells by immunoblotting; assay type: cell-based, rat; conditions: TAT-transduced L6 myotubes; for phosphorylation of Akt in response to insulin: pS473; for phosphorylation of IRS1 in response to insulin: pY632-IRS1
Method: (§1) Transfection was carried out with GeneJuice (Novagen) for DNA plasmids or Oligofectamine (Invitrogen) for siRNA oligos according to manufacturer's protocols. Silencer negative Control scrambled (Scr) siRNA used as control was purchased from Ambion and the previously validated (Enomoto et al., 2005) GIV siRNA sequence used was custom-ordered from Dharmacon. For TAT-construct transduction, cells were incubated with 300-800 nM of the TAT-proteins for 30 min at 37° C. prior to three washes with PBS and addition of fresh growth media. For assays involving insulin (Novagen) stimulation of TAT-treated cells, such stimulation was carried out 90 min after transduction.
Unless otherwise indicated, serum starvation of cells for use in experiments involving insulin stimulation was carried out by growing cells overnight in the presence of no serum (i.e., 0% FBS) in the case of Cos7 and L6 cells, or in the presence of 0.2% FBS in the case of HeLa cells. To induce IR, cells were pre-treated with Sodium Palmitate (PA; Sigma-Aldrich) (0.5 mM, stock solution at 5 mM/5% FFA-free BSA in ethanol) or vehicle control (5% FFA-free BSA in ethanol) for 16 h. To reverse IR with TZDs, cells were treated with 50 μM Pioglitazone (Pio) (Sigma-Aldrich) or DMSO (vehicle control) for 18 h prior to stimulation with 100 nM insulin. Treatment with PKCθ pseudo-substrate inhibitor (Santa Cruz Biotechnologies) was performed at 10 μM for 16 h.
Protein samples for immunoblotting were run on SDS/PAGE gels and transferred onto PVDF membranes (Millipore). Membranes were blocked with PBS containing 5% non-fat milk (or with 5% BSA when probing for phosphorylated proteins) before incubation with primary antibodies. GIV was detected using rabbit anti-GIV coiled-coil (Millipore) (1:500); GIV-CT (Santa Cruz Biotechnologies) (1:500); phospho-Tyr1764-GIV (1:500) and phospho-Ser1689-GIV (21st Century Biochemicals) (1:250) antibodies. Other antibodies used in this work include rabbit polyclonal antibodies against Gαi3 (1:333), pan-GP (1:250) and phospho-IRS1 (1:500) from Santa Cruz Biotechnologies; and phospho-Akt (1:250); total Akt (1:250); phospho-ERK (1:250); phospho-AS160 (1:250); total InsRβ (1:500) and total IRS1 (1:500) from Cell signaling. Mouse monoclonal Abs against phospho-InsRβ (1:250), His (1:1000), β-tubulin (1:1000), GFP (1:500) from Santa Cruz Biotechnologies, and control IgG (Bio-Rad Laboratories) were commercially obtained. Goat anti-rabbit and goat anti-mouse Alexa Fluor 680 or IRDye 800 F(ab′)2 secondary antibodies were purchased from Li-Cor Biosciences. Images were processed with ImageJ software (NIH) and assembled as figure panels using Photoshop and Illustrator software (Adobe).

L6 myotubes = test: Uptake of TAT peptides and actin staining in L6 myotubes (confocal); assay type: cell-based, rat; conditions: 0.2% FBS overnight
Excerpt: Dilutions of antibodies are as follows: anti-phospho-GIV-Tyr1764 (1:200) (Ventana/Roche and Spring Biosciences); anti-HA (1:300) (Covance); anti-GFP, mouse anti-InsRβ and mouse anti-phospho-IRS1 (1:200) from Santa Cruz Biotechnologies; DAPI 1:1,000 (Molecular Probes); Secondary goat anti-rabbit (594) and goat anti-mouse (488) Alexa conjugated antibodies (1:500) from Molecular Probes. Coverslips were mounted with ProLong Gold (Life Technologies). Cells were imaged on a Leica SPE confocal microscope using a 63× oil objective using 488, 561 and 405 laser lines for excitation. Images were scanned using a line-average of 3. All images were processed using ImageJ software and assembled into figure panels using Photoshop and Illustrator (Adobe).
as §1, with “For assays involving insulin (Novagen) stimulation of TAT-treated cells, such stimulation was carried out 90 min after transduction.” left out

HeLa cells = test: Actin cytoskeleton remodeling in HeLa cells (phalloidin staining, confocal); assay type: cell-based; conditions: ~400 nM TAT peptide
Method: HeLa cell lines were fixed at room temperature with 3% paraformaldehyde for 20-25 min, permeabilized (0.2% Triton X-100) for 45 min and incubated for 1 h each with primary and then secondary antibodies as described (7). Dilutions of antibodies and reagents were as follows: His (1:500); Phalloidin (1:1,000); DAPI (1: 2,000); secondary goat anti-rabbit (594) and goat anti-mouse (488) Alexa-conjugated antibodies (1:500). Coverslips were mounted with ProLong Gold (Life Technologies). Cells were imaged on a Leica SPE confocal microscope using a 63× oil objective using 488, 561, and 405 laser lines for excitation. Images were scanned using a line-average of 3. All images were processed using ImageJ software and assembled into figure panels using Photoshop and Illustrator (Adobe).
For TAT-protein transduction, cells were incubated with 400-800 nM of the TAT-proteins for 30 min at 37° C. prior to three washes with PBS and addition of fresh growth media. For analysis of EGF signaling, subconfluent monolayers of HeLa cells were treated with TAT proteins for 30 min, washed with PBS, and subsequently stimulated with EGF (50 nM) at 4 h after TAT transduction. For scratch-wound assays, HeLa monolayers were treated with TAT proteins before and at 12 h after wounding. For cancer cell invasion assays, highly invasive MDA MB 231 breast cancer cells were plated in 6-well dishes, treated with TAT-peptides for 30 min and subsequently lifted and placed in transwell chamber in the presence of serum-free media. For L×2 myofibroblast activation assays, cells were first treated with TAT-proteins for 30 min, starved in serum-free media, and subsequently treated with 1.5 ng/ml TGF-β for 24 h. TAT-protein transduction was repeated every 8 h during the course of TGFβ stimulation (total 3 treatments). For assays involving insulin stimulation of TAT-treated L6 myotubes, such stimulation was carried out 90 min after transduction. In each case, whole cell lysates prepared from cells in duplicate wells were analyzed for signaling pathways and TAT-protein uptake by immunoblotting.

Molecule | phosphorylation of Akt in response to insulin [1] | phosphorylation of IRS1 in response to insulin [1] | actin stress-fiber formation in L6 myotubes (L6 myotubes) | actin remodeling / actin stress fibers (HeLa cells) | actin remodeling / actin stress fibers (HeLa cells; listed as WT)
B1 | enhancement | enhancement | enhancement | triggered actin remodeling | not
B2 | suppressed | suppressed | disrupted | suppressed the formation of actin stress fibers | 

Reference: patent publication US10653749B2, “Targeting GIV-GEF-GI signaling for treating diverse diseases” (The Regents of the University of California, priority 2015, dated 2020)
